According to PMC12073449, “Development of a Mechanism of Action-Reflective Cell-Based Reporter Gene Assay for Measuring Bioactivities of Therapeutic Glucagon-like Peptide-2 Analogues” (Molecules, 2025):
Square brackets hold non-standard residues; d marks the D form. Ends that are not written are not given here. Nle = CCCC[C@H](N)C(=O)O

What was measured:
human GLP-2R [1] = molecular target: T1, human GLP-2R (Homo sapiens, UniProt O95838); experiment: Cell-based reporter gene assay (RGA), HEK293-GLP-2R-Luc, CRE-luciferase; conditions: for dose-response curve in RGA / concentration–response curve in RGA (specificity): diluted to 2.665 µmol/L and further 7-fold for 10 concentration points, HEK293-GLP-2R-Luc cells; for Mean potency: mean of 8 tests, two analysts
T1 construct: The full-length cDNA of human GLP-2R was synthesized, cloned, and inserted into the pLU.cmv.Zeo vector; expressed in transfected cells
T1 sequence (O95838 1-553): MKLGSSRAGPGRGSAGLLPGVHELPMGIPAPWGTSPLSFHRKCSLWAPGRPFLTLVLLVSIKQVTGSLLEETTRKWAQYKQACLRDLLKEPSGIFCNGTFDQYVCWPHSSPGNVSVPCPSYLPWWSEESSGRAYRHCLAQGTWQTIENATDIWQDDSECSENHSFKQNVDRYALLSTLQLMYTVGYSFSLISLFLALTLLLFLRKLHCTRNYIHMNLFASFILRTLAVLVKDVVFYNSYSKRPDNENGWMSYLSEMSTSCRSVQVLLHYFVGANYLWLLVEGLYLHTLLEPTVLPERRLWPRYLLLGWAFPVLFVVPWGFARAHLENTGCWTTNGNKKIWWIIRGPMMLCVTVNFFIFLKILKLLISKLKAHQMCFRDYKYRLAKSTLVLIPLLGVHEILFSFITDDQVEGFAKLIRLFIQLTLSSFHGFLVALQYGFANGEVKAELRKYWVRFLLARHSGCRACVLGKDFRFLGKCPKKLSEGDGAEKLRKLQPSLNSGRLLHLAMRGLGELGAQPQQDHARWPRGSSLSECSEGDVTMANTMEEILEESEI
Protocol: To generate a HEK293 cell line stably expressing CRE-driven luciferase and GLP2R, the CRE-miniP.Luc virus-containing cell supernatants were diluted in DMEM in the presence of 8 µg/mL polybrene before being added to HEK293 cells. To obtain a stable cell pool, the medium was replaced 48 h after incubation, with fresh culture medium containing 3 µg/mL puromycin. After about 3 weeks selection, the cell pool was then further infected with pLU.cmv-GLP2R.Zeo virus and selected with 200 µg/mL Zeocin and 3 µg/mL puromycin. […] The expression of GLP-2R was examined using flow cytometry. After that, the positive clones were routinely maintained in selective medium.
Cell-based RGA has been described previously. Briefly, 50 microliters of HEK293-GLP-2R-Luc cells were seeded into a 96-well white plate at a density of 4 × 10^4 cells/well. The cells were then incubated at 37 °C with 5% CO2 overnight (16 to 24 h). […] After 5 h of incubation, 100 µL of britelite plus reporter Gene Assay reagent were added to each well and mixed thoroughly under subdued light conditions for 5 min. The RLU signal was then determined with a SpectraMax M5e multimode plate reader (Molecular Devices, San Jose, CA, USA).
The RGA was validated as described previously. […] Samples of each potency level were tested by two analysts 8 times in total. […] The response of HEK293-GLP2R-Luc cells to these samples were determined as illustrated in 4.6.
The lower/upper asymptote was determined by the ratio of the top asymptote to the bottom asymptote when RGA best fit the 4PL model. The correlation coefficient (R^2), deviations from parallelism, and the regression in the 4PL model were estimated using SoftMax® Pro 7.1 software (Molecular Devices, San Jose, CA, USA). Specifically, a linear regression with an R^2 value no less than 0.98 was considered to have a very good fit. Additionally, a p-value below 0.01 was regarded as statistically significant. […] All the dose-response curves were plotted using GraphPad Prism® software 8.0.2 (GraphPad, Boston, MA, USA).

intestinal cells = test system: intestinal cells; design: method as in PMID 32060615; conditions: cited from earlier work
[2] = design: method as in PMID 35933503; conditions: general statement; cited from earlier work
Excerpt: The diverse functions of GLP-2 highlight its significance in maintaining intestinal health and physiology. As a naturally occurring gut hormone, GLP-2 not only promotes nutrient absorption by decreasing intestinal motility and permeability, but also plays a pivotal role in stimulating intestinal epithelial cell growth and function. This multifaceted action of GLP-2 is crucial for the maintenance of the intestinal barrier, which is essential for preventing the translocation of harmful bacteria and toxins into the bloodstream.

[3] = test system: dipeptidyl peptidase 4 (DPP-4); conditions: cited from earlier work
Excerpt: (§1) This truncated form is subsequently degraded by endopeptidases and presumably cleared via renal excretion. […] Consequently, DPP-4 resistant GLP-2 analogues with an extended half-life were developed.

patients with SBS = conditions: cited from earlier work
Excerpt: as §1

rat GLP-2R = conditions: BHK fibroblasts stably transfected with the rat GLP-2R; cited from earlier work
Excerpt: GLP-2 exerts its effects largely through interaction with the GLP-2 receptor (GLP-2R), which belongs to the class B1 of the G protein-coupled receptors. […] This led to the hypothesis that GLP-2 acts indirectly through a complex network of indirect mediators that induce diverse signaling pathways, which remains poorly understood.

[4] = test system: enteric neurons and glial cells; conditions: via the PI3K/Akt/mTOR pathway; cited from earlier work
Excerpt: (§2) GLP-2 regulates proliferative and cytoprotective pathways in the intestine. […] Additionally, it couples with the activation of the Ras/MAPK pathway and stimulates DNA synthesis.

intestinal epithelium = conditions: rodents; cited from earlier work
Excerpt: as §2

rat = test system: rat; design: method as in PMID 31577440; conditions: head-to-head preclinical study; cited from earlier work
[5] = Teduglutide content by HPLC after storage at 37 °C; format: physicochemical; conditions: XBridge Peptide BEH C18, 214 nm, peak area ratio to non-treated DS
Protocol: The bioactivities of the treated and non-treated DS were then measured by the RGA. The teduglutide contents were analyzed by HPLC. An XBridge Peptide BEH C18 column (300 A, 5 μm, 4.6 mm × 250 mm) purchased from Waters (Milford, MA, USA) was used with a flow rate of 1.0 mL/min and was detected at 214 nm. The mobile phase was aqueous solution containing 0.1% trifluoroacetic acid and acetonitrile containing 0.1% trifluoroacetic acid. A total of 50 μL DS samples were injected into the column.

[6] = Appearance of teduglutide drug substance solution after storage at 37 °C; format: physicochemical; conditions: after incubation for 12 or 14 days at 37 °C
human GLP-2R [7] = molecular target: T1, human GLP-2R; experiment: Cell-based reporter gene assay (RGA), HEK293-GLP-2R-Luc, CRE-luciferase; conditions: incubation time 5 h and 6 h, compared with 4 h; 96-well plate

HGEGSFSSELSTILDALAARDFINWLIATKITDKKKKKK [elsiglutide, GLP-2 analogue under development, synthesized by GenScript]
dose-response curve in RGA (human GLP-2R [1]): induced sigmoid curves similar to those induced by teduglutide | cell proliferation and intestinal cell apoptosis (intestinal cells): increase cell proliferation and reduce intestinal cell apoptosis | bioactivity [2]: enhanced bioactivities | half-life [2]: extended half-lives

Glucagon-like peptide-2 [GLP-2]
inactivation by DPP-4 ([3]; excision of the two N-terminal amino acids): rapid inactivation | intestinal absorption, growth and transit in SBS (patients with SBS; SBS): increase intestinal absorption by promoting intestinal growth and delays accelerated gastric emptying, gastrointestinal transit, and hypersecretions | cAMP accumulation (rat GLP-2R): dose-dependent cAMP accumulation | neuronal differentiation [4]: stimulate neuronal differentiation | growth of the intestinal epithelium (intestinal epithelium): enhances the growth of the intestinal epithelium

HGDGSFSDE[Nle][dF]TILDLLAARDFINWLIQTKITD-NH2 [apraglutide, GLP-2 analogue under development for SBS, synthesized by GenScript]
dose-response curve in RGA (human GLP-2R [1]): induced sigmoid curves similar to those induced by teduglutide | dependence on PN support (patients with SBS; Phase II clinical trials, SBS): significant reduction in patients’ dependence on PN support | half-life compared to teduglutide and glepaglutide (rat): longer half-life | intestinotrophic effect compared to teduglutide and glepaglutide (rat): greater intestinotrophic effect | bioactivity [2]: enhanced bioactivities | half-life [2]: extended half-lives

IL-6: 200-06, Thermo Fisher Scientific
concentration–response curve in RGA (specificity) (human GLP-2R [1]): no dose–dependent response curve was induced

His-Gly-Asp-Gly-Ser-Phe-Ser-Asp-Glu-Met-Asn-Thr-Ile-Leu-Asp-Asn-Leu-Ala-Ala-Arg-Asp-Phe-Ile-Asn-Trp-Leu-Ile-Gln-Thr-Lys-Ile-Thr-Asp [teduglutide, [Gly2] hGLP-2 (1–33), first and only GLP-2 analogue approved for medical treatment of short bowel syndrome]
response of five clones (human GLP-2R [1]; clones D5, D9, E11, F2, G11): high response | Mean Ln potency (human GLP-2R [1]; expected 50%): −0.659 | Mean potency (human GLP-2R [1]; expected 50%): 0.518 | Mean Ln potency (human GLP-2R [1]; expected 71%): −0.343 | Mean potency (human GLP-2R [1]; expected 71%): 0.711 | Mean Ln potency (human GLP-2R [1]; expected 100%): 0.005 | Mean potency (human GLP-2R [1]; expected 100%): 1.007 | Mean Ln potency (human GLP-2R [1]; expected 141%): 0.372 | Mean potency (human GLP-2R [1]; expected 141%): 1.453 | Mean Ln potency (human GLP-2R [1]; expected 200%): 0.757 | Mean potency (human GLP-2R [1]; expected 200%): 2.140 | teduglutide content ([5]; end of decline with incubation at 37 °C): 81.6% | teduglutide content ([5]; start of decline, 37 °C): 99.9% | precipitation of DS solution [6]: develops a clear colloidal precipitate | drug response vs incubation time (human GLP-2R [7]): stronger response (higher upper asymptote) | intestinal absorption, growth and transit in SBS (patients with SBS; SBS): increase intestinal absorption by promoting intestinal growth and delays accelerated gastric emptying, gastrointestinal transit, and hypersecretions | PN requirements and intestinal function (patients with SBS; patients with SBS, daily treatment): significant reduction in PN requirements and an improvement in intestinal function | bioactivity [2]: enhanced bioactivities | half-life [2]: extended half-lives

glucose-dependent insulinotropic peptide [GIP]
concentration–response curve in RGA (specificity) (human GLP-2R [1]): unsuccessfully induced

GLP-2 (3–33): truncated and inactive GLP-2 formed by DPP-4 (DGSFSDEMNTILDNLAARDFINWLIQTKITD; Glucagon-like peptide 2; UniProt P01275 148-178, looked up, fragment)
activity of truncated GLP-2 ([3]; DPP-4 cleavage product): inactive

IL-4: 200-04, Thermo Fisher Scientific
concentration–response curve in RGA (specificity) (human GLP-2R [1]): no dose–dependent response curve was induced

glucagon-like peptide-1 [GLP-1]
concentration–response curve in RGA (specificity) (human GLP-2R [1]): unsuccessfully induced
